Reference: CN114641502A (SHANGHAI YINGMING BIOTECHNOLOGY CO LTD, dated 2022)

Experiments:
[1] = biological target: T1, 人TIGIT (full length, on cells) (human, UniProt Q495A1 22-244); assay: flow cytometry affinity on CHOK1 cells over-expressing human TIGIT, quantitative beads
T1 construct: whole, on cells; also called human TIGIT; hTIGIT
T1 sequence (looked up): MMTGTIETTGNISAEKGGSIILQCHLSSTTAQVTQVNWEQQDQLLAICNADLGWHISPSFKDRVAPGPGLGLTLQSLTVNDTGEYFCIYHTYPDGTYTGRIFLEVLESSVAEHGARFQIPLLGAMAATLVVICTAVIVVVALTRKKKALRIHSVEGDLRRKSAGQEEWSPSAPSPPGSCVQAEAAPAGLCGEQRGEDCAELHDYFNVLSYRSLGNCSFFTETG

[2] = biological target: T1, 人TIGIT (full length, on cells); assay: flow cytometry on 293F cells expressing human TIGIT
[3] = biological target: T2, 小鼠TIGIT (full length, on cells) (mouse, UniProt P86176 29-249); assay: flow cytometry on Flp-In CHO cells expressing mouse TIGIT
T2 construct: whole, on cells; also called mouse TIGIT; W364-FlpinCHO.mpro1.FL
T2 sequence (looked up): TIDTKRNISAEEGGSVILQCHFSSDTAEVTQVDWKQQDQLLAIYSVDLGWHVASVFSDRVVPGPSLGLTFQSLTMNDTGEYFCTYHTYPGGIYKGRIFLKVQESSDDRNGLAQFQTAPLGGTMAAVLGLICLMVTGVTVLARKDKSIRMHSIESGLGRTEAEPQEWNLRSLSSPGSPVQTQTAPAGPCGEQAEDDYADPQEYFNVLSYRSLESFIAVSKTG

[4] = biological target: T1, 人TIGIT (full length, on cells); assay: flow cytometry competition on 293F cells expressing human TIGIT; competitor CD155.ECD-mFc at 2 μg/mL
[5] = biological target: T1, 人TIGIT (full length, on cells); assay: cell-based or functional assay
[6] = biological target: T3, 食蟹猴TIGIT (full length, on cells) (cynomolgus monkey, UniProt A0A7N9I9V4 89-312); assay: flow cytometry on Flp-In CHO cells expressing cynomolgus TIGIT
T3 construct: whole, on cells; also called cynomolgus TIGIT; W364-FlpinCHO.cynopro1.FL

W364-hPro1.ECD.His = biological target: T4, W364-hPro1.ECD.His (human, UniProt Q495A1 22-141); assay: SPR (Biacore 8K), antibody captured by anti-human IgG Fc, TIGIT ECD as analyte, 1:1 model
T4 construct: extracellular domain; Analyte in the SPR assay; 20 kDa used for molar concentration; also called W364-hPro1.ECD.his (Sino); 人TIGIT胞外结构域
T4 sequence (looked up): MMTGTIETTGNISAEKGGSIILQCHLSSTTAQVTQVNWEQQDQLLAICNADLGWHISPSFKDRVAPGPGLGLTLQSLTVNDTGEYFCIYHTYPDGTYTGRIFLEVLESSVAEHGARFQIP

T3 sequence (A0A7N9I9V4 entry or part of it): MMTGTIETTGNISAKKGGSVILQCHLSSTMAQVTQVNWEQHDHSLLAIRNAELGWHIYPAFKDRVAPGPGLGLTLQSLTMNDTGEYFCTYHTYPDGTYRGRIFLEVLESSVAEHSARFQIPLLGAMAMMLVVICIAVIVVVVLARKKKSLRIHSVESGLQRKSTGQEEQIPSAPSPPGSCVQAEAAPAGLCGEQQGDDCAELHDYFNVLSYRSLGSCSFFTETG

B1: W3645-2.131.4-hIgG1L3 (antibody, V domains shown)
VH: QLQLQESGPGLVKPSETLSLTCAVSGGSITSSSYYWGWIRQPPGKGLEWIGSIFFSGITYYNPSLKSRVTVSVDTSKNQFSLKLSSVTAADTAIYYCARRGLGGILASGYFDYWGQGTLVTVSS
VL: QSALTQPASVSGSPGQSITISCTGTSNDVGGYNYVSWYQQHPGKAPRLLIFDVSNRRTGISNRFSGSKSGITASLTISGLQAEDEADYYCSSYTSISTLVVFGGGTKLTVL
notes: Fully human (OMT rat derived), human IgG1; also called WBP3645先导抗体; WBP3645最终先导抗体
[1]
  Kd: 0.027 nM
[2]
  EC50: 0.17 nM
[3]
  EC50: 0.14 nM
[4]
  IC50: 0.14 nM
[5]
  ADCC EC50 (LDH release, PBMC effectors): 0.0019 nM
  NFAT-荧光素酶报告基因 EC50: 0.92 nM
[6]
  EC50: 0.05 nM
W364-hPro1.ECD.His
  Kd: 0.75 nM
